According to patent publication US20260102505A1, “ANTI-CD45-IGN ANTIBODY DRUG CONJUGATES AND USES THEREOF” (Vor Biopharma Inc., priority 2022, published 2026):
Where a chain is given by its changes, count along the chain named.

B1: Ab2: human anti-CD45 antibody, VH SEQ ID NO:11, VL SEQ ID NO:15 (antibody, V domains shown)
VH: EVQLVESGGGLVQPGGSLRLSCAASGFTFEAYSMNWVRQAPGKGLEWVSYISLSGATIHYADSVKGRFTISRDNAKNSLYLQMNSLRAEDTAVYYCARGGQYYYDSSDYGEVAFDIWGQGTMVTVSS
VL: DIVMTQSPLSLPVTPGEPASISCRSSQSLVSNGYNYLDWYLQKPGQSPQLLIYFGSSRASGVPDRFSGSGSGTDFTLKISRVEAEDVGVYYCMQRRRTPWSFGGGTKVEIK
B2: Ab3: human anti-CD45 antibody, VH SEQ ID NO:21, VL SEQ ID NO:25 (antibody, V domains shown)
VH: B1 VH with E1Q, Q13K, E30G, A31G, L53I, H59T
VL: DIVMTQSPLSLPVTPGEPASISCRSSQSLVSNGYNYLDWYLQKPGQSPQLLIYFGSSRASGVPDRFSGSGSGTDFTLKISRVEAEDVGVYYCMQRRRTPPFTFGGGTKVEIK
B3: Ab7: human anti-CD45 antibody, VH SEQ ID NO:61, VL SEQ ID NO:65 (antibody, V domains shown)
VH: B1 VH with E1Q, Q13K, E30G, A31G, L53I, H59T
VL: B2 VL with N32S
B4: Ab4: human anti-CD45 antibody, VH SEQ ID NO:31, VL SEQ ID NO:35 (antibody, V domains shown)
VH: B1 VH with D105T
VL: B1 VL
B5: Ab6: human anti-CD45 antibody, VH SEQ ID NO:51, VL SEQ ID NO:55 (antibody, V domains shown)
VH: B1 VH with D105T, M122L
VL: B1 VL with M4L, N32S
B6: AbB: humanized and affinity matured anti-CD45 antibody, VH SEQ ID NO:81, VL SEQ ID NO:85 (antibody, V domains shown)
VH: EVQLVESGGGLVQPGGSLRLSCAASGFTFTNFWMAWIRQAPGKGLEWVASISSSGGSIYYPDSVKDRFTISRDNSKNTLYLQMNSLRAEDTAVYYCVKFHHYSGGGDAWGQGTLVTVSS
VL: DIQMTQSPSSLSASVGDRVTITCKASQNINKYLDWYQQKPGKAPKLLIHYTNNLHTGIPSRFSGSGSGTDYTLTISSLQPEDFATYYCLQHSSRWTFGGGTKVEIK
B7: AbC: humanized and affinity matured anti-CD45 antibody, VH SEQ ID NO:91, VL SEQ ID NO:95 (antibody, V domains shown)
VH: EVQLVESGGGLVQPGGSLRLSCAASGFTFNNYWMTWVRQAPGKGLEWVSSISSSGGSIYYPDSVKDRFTISRDNAKNSLYLQMNSLRAEDMAVYYCARLYYYDGGGDAWGQGTLVTVSS
VL: B6 VL with D1G, N28D, H49Y, Y50N, S92I
B8: AbA: humanized and affinity matured anti-CD45 antibody, VH SEQ ID NO:71, VL SEQ ID NO:75 (antibody, V domains shown)
VH: EVQLLESGGGLVQPGGSLRLSCAASGFTFNNYWMTWVRQAPGKGLEWVSSISSSGGSIYYPDRVKGRFTISRDNSKNTLYLQMNSLRAEDTAVYYCARDERWAGAMDAWGQGTTVTVSS
VL: DIQMTQSPSSLSASVGDRVTITCKASQNINKNLDWYQQKPGKAPKLLIYETNNLQTGVPSRFSGSGSGTDFTLTISSLQPEDFATYYCYQHNSRFTFGQGTKLEIK

System: human CD45, cyno CD45 and rhesus CD45
Assay: CD45 binding / species cross-reactivity of antibodies
Design: species or system cynomolgus

Molecule	cross-reactivity with CD45 of species (in words)
B1	cross reacts with human CD45, cyno CD45 and rhesus CD45
B2	cross reacts with human CD45, cyno CD45 and rhesus CD45
B3	cross reacts with human CD45, cyno CD45 and rhesus CD45
B4	cross reacts with human CD45, cyno CD45 and rhesus CD45
B5	cross reacts with human CD45, cyno CD45 and rhesus CD45
B6	cross reacts with human CD45, cyno CD45 and rhesus CD45
B7	cross reacts with human CD45, cyno CD45 and rhesus CD45
B8	cross reacts with human CD45, cyno CD45 and rhesus CD45
